Columns and labels:
PhoP [1] = molecular target: T1, PhoP (Mycobacterium tuberculosis, UniProt P71814 1-247); assay: ITC
PhoP [2] = molecular target: T1, PhoP; assay: competition
PhoP [3] = molecular target: T1, PhoP; assay: ITC; remark: listed apart in the source
His-PhoP = His-PhoP (Mycobacterium tuberculosis, UniProt P71814 1-247); assay: SELEX
PhoP [4] = molecular target: T1, PhoP; assay: ITC; remark: listed apart in the source

B1: RD6m1 (dsDNA)
DNA 1: AGTACCGGCGCTGACTTTCACAGCTTTCAT
DNA 2: ATGAAAGCTGTGAAAGTCAGCGCCGGTACT
For B1, which binding signal (PhoP [1]) is on record?
Its binding signal is ~40 fold lower affinity than RD6.

B2: WB6 D1 (dsDNA)
DNA 1: ATACACAGCTGATTAACAGGATCTATGCC
DNA 2: GGCATAGATCCTGTTAATCAGCTGTGTAT
Does B2 bind (PhoP [2])?
Result: binds

B3: espA -246 (dsDNA)
DNA 1: CTTGGGATCGCGCCGCCTACACGGCGGTTGGC
DNA 2: GCCAACCGCCGTGTAGGCGGCGCGATCCCAAG
Does B3 bind (PhoP [3])?
Result: no binding

B4: RD25 (dominant SELEX sequence) (dsDNA)
DNA 1: CTGGAGCATATGGTCCAGTTAGTACCTCACAGCACTTTCAGAGCTTTCATATGCCTGCACC
DNA 2: GGTGCAGGCATATGAAAGCTCTGAAAGTGCTGTGAGGTACTAACTGGACCATATGCTCCAG
Does B4 bind (His-PhoP)?
Result: binds

B5: RD6m23 (dsDNA)
DNA 1: AGTACCTCACAGCAATTTCACAGCTTTCAT
DNA 2: ATGAAAGCTGTGAAATTGCTGTGAGGTACT
Does B5 bind (PhoP [4])?
Result: binds

B6: WB6 D5 (dsDNA)
DNA 1: AGATACACAGCTGATTAACAGGATCTA
DNA 2: TAGATCCTGTTAATCAGCTGTGTATCT
Does B6 bind (PhoP [2])?
Result: binds

B7: fadD9 (dsDNA)
DNA 1: CATCTCACAGCCGATCAGCAGCAGGCTT
DNA 2: AAGCCTGCTGCTGATCGGCTGTGAGATG
B7 was tested. Which Kd (PhoP [3]) did it give?
The Kd was 82 ± 4 nM.

B8: Rv3134c (dsDNA)
DNA 1: GCCATTTCTGGGACTTTGCTGTGAAAAGCTG
DNA 2: CAGCTTTTCACAGCAAAGTCCCAGAAATGGC
For B8, which Kd (PhoP [3]) is on record?
Its Kd is 61.7 ± 5.3 nM.
